Laboratory results from patent US20250002576A1.

Target: human Claudin 18.2 (human) (UniProt P56856)
Test: flow cytometry, antibody dilution series on hCLDN18.2-expressing MiaPaCa-2 cells

B1: YU577-E08 (antibody, V domains shown)
VH: QVQLVQSGAEVKKPGASVKVSCKASGYTFTSYYMHWVRQAPGQGLEWMGIINPSGGSTSYAQKFQGRVTMTRDTSTSTVYMELSSLRSEDTAVYYCATRQFDYWGQGTLVTVSS
VL: QSVLTQPPSVSAAPGQKVTISCSGSSSNIGNNYVSWYQQLPGTAPKLLIYENNKRPSGIPDRFSGSKSGTSATLGITGLQTGDEADYYCGTWDSSLSAAVFGGGTKVTVL
  EC50: 7.2 nM
